Measurements taken from the domain aggregation screens of Martell et al. (2025).

Assay: soluble fraction after stress (log2 fold change); higher = more stays soluble; pooled small domains, quantitative proteomics
Details: stress: 50 degC
Summary of the method: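 Custom libraries of small protein domains were pooled and measured in a high-throughput format, with quantitative proteomics as the read-out. Each library was stressed at 50°C. The value is the log2 fold change in the amount of each protein that stays soluble after stress, used as a measure of aggregation propensity; higher values mean more of the protein stays soluble.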

Sequence | soluble fraction (log2)
HMQRAEQLPAELAAVFRAETEAWGFFERQPPGYQRVAIHWVASAKQEATRLRRLAKLIEESAAGRR | -1.7
HMSIQREIILEVIKNNRTHPTAEEIYILVTKKEPKISRSTVYRNINILVEKGIIEKITIATGPDRYDY | -1.4
HMIIYGLNPVKDFINLFPNKISTLFISKNKLSDSEMKSVVNINTVYVSDAELKRITGTTKHQSLAAEID | -1.21
HMFMSDDDIRILVKEWLQSQNRKSYQLAEEIGIRPQTFYAQMSVRKISANTKKALSRIIPGL | -0.86
HMIPTDPNGDLIKILYTSDQINELYARAKLNDVEDLFLDWTKNVLGESNFEETGPTKNEYLIPQ | -0.149
HMLRMTRNRQKLVEVLMESGRPLSADEIREAAGFASTDLVTVYRNLEAFQSAGLLQRIPLENGSQLFELT | -0.478
HMFGEDNLKSKEIKERVTEVAKHADDPVWIEARRKWKDENPDQNVKDYQQAYISGRIHELPWDVSYI | 0.142
HMADWTETELAALRRAYASGTTRVSYDGKSVDYGSAEDLLSRIRTLQGAASDVAADAVAAVDA | 0.0524
HMSSVEVWINGKSSGLTSDNRAQILQQLPAESIERIEVIDNPSAKFSAEGSAGIINIVLKKD | 0.157
HMVELGMSQNEFIQKFGKPFNKEMAYTYDKHKRETLFYKEDLYRGSWFIVTTAFTFVDSKLVSQEIVREER | -3.41
HMRSQLALVVRTGESQRLDNFLVNNLAWKSRNRLQGLIREGLVTVNGEKTKASRRVHLDDLVEIHL | -1.25
HMEVADAAQRKILQALQVQPLTVEQLSQELRTDTGDLLVSLSMMEITGLIRREAGNTFLAVFAPK | -0.448
HMPQPDVIEVRQGIVTGMRPDRRTGWLRDEEDAAGEPKSFSIDVITPKGRTPGKGAVVTYTLTNGKITEVK | -0.0415
HMQQEPNFYIVDGNTNQIVDRYYAPDSNVAHQYLGQWRQQHDPQETGNYRYGRLSSETEERYRNLAA | 0.236
HMSGITDIITDGKATSRPVVVTDGGHIRVLSPYTSFAIYTLGGMSLPTESRLEPGIYIVVVDSNAVKVAV | -0.619
HMRTMFGQRLRLARKRAGLSMQALADRVTPSVSAQAISKYEADQMMPSSSVLVGLGKALGVSLDFLVGGQ | -0.536
HMNIIHNPSKNFIESDLNDLKEGMEIEHKKFGYGLIKSIDKTQNHQKAVVNFKLVGEKTLLLSFARLRIV | -2.75
HMEAFDYLGRRTRDLLERQGWTTVPLVRDAYLAVPGGERLLQVPGFGRKSLREVRRWLWLQIGDPRFE | -1.36
HMESRMTYLQKTKLATENLDAKLIDHQQWVAEVLGEDYRGVYSDEYLRRAAKVFAIFVNNLDD | -2.18
HMKITADQEIETAINYFKKSIAEKGWKGVNPDEFKQMNDYLSETFGYSATIKFQKALDEQGLMVDE | 0.0602
HMEQFRENIVRIYMEIDDYENGAKFLEMGNNRDASFYELAGDFYKYFGENELANENYDLAISA | -0.387
HMTVKNFNDLPGFKNENLAELKAMGITTISELAEALNDGGKIKEIIKNLSGVGPKTAEKWKDAIG | ≥ 0.62
HMFPELTDDEQLIVSTLAKTNDMQINMLAVRTGIPVQRMSALLFSLEMKGVVKMYAGGTYHLL | -1.05
HMEDQFWQNRAEMALASARRAGRIVTYAEMADAADIPAPQRIHKLTLWLEATMRQDHASGQPLRAALV | 0.0463
HMIHQPNNETTRNLIAGVVKKSLSVWETRVQVDGVDVTTAKDNLAEVHINIRYRLRHNQTPASLGLRLNLG | 0.00106
HMTAAPEVRVEGLFKGAAVLKIDGQQVMLKKGRSHSSGVTLVDANAHRAIVEIDGQRHELALHMA | 0.0499

Sequence | soluble fraction (log2)
HMGPSEVTLDNFVGKNYTDVVNDTSYQFTFKKEEKSDQTHAAGIIIAQSPKKGIKVKSNSTVTLTVSTG | -0.0626
HMIRMPNLIGLSVRSAEQQLVIAGLKKGIVHQVNDPRLKEVIDMQALGHKITAGSSIPKGTEVDLYIGNGT | 0.146
HMSDYKSYLQELVQTDKKSLSYNVVKETGPAHDKTFEVEVEVDGIIYAHGVGKSKKEAEQNAAKNAIMISA | 0.149
HMDERLLRLYERELQFLREGADEFAQAYPKVAGHLGLNSQSMGDPFIERLLEGLGFLTARIQLQLESEF | -0.0252
HMELEWENYSLAGEIKTTVMLYQNRRNGLPEEAKQKADALMKQLKQAVIENDAQKVEKIDDALTALLFE | -0.15
HMSATPQRMSIINELDSARKNLSAYDLRDSLKDKGHSFNISTIYRVLSFWIDVGVVHKMDSSNTYL | 0.147
HMYEDGGAFLKAEREKYGLTLTDIYEHTHIPVRKLKAYEMHEEEMPDRTRALLELYFDQVAYEYES | -0.443
HMQALDNNDALEEIIKKVITENPSQVTEFRNGKDSLMNFLVGKVMAASGGKANPKTLPETIEKIIK | 0.12
HMLEVTQTDVKMYTTSGTPVYAAPDLNSAIVVYLERFVNVTVTGITDNGFYRVNLNGDYYIPGPYLISSV | -0.369
HMAGIPIHMSQLKQIILLLSQGYPIKGIARETGVSRNTIKGYLQTLTSQDLNVTDALKLENIQLEYLLRSP | -1.65
HMQVEMVLSQEAHEWLLQRGFIPEYGAREMDRVIAAHLKPLLMREILFGTLKAGGKVRVQVENGALKLQP | -1.44
HMAITVPEGATLSDAAVLLKQAGAVRSADAFLTRAKVFGGSTPIKAGEFVIPVQASNKDILAILQGGK | 0.021
HMSVLPAREQVAAILRQAILLRKFKEGQDLTLKDAAELVGSSITPVREAFQILENEGLIELRPNKGAVVL | -0.284
HMLRVGASVTANGKYWYDSYGSKPFGTANNLSTTVTRIVPGNPYPIHIGSYGWLQESQIQIT | -1.03
HMINIGANIRAIRKQKNIKQVDLVRLLQLEGVEITRETLVKIESGVQHIKASQLRGIRDALGTTYDELL | -2.95
HMGMKTSQKLARQREIVRLIRAQTIRTQAELADALRERAFPVSQPTLSKDIAELGLIKVPLPDSGYRYQLP | -0.378
HMNDLDSLWDIWENLNERGIGDKSEEGQELRDAIREFIDTNELNVRVTRNKTNEDLLTDIEDALEVAKNS | -0.33
HMGIPIEAYHESLHRHYIDLWELLDTGKETLIDAEGNEVDKIHLLNAIRFNVNGMLHELLKE | -1.76
HMSTTDGIERFLASGAVKGIGRTMAARIVEHFGSRTLTVMESEPERLTEVAGIGRKKAESIAASYAELS | -0.156
HMITETIGANIKTLRDKFRMSQQDLASKMNTARPVISNWENGKTEPSSSQLLKLAKIFDTSTDKILGNV | 0.163
HMTMLLEYNVSRSSKWMNKTIMDAEIPDDILIVMIKRNGQVIVPKGSTEILENDILVLSGNNLNEVALG | -2.33
HMLPQGKGTAMWLADHLAAASVTLDAGARKLLEDTLGEDMSRLPGVLRVLEATFGSDAGRLSAEDIEPFL | 0.31
HMGAVPKNYFPAVEKGLQDSVQKGLLAGYPVVGVKAILYDGSYHPVDSSEMAFKTATIQAFKKGFMEA | 0.2
HMEDQITNQQFTMTKQSILDLLVKKSYPPYELANELHLKKEEVLPIIRFLIAENEIHFKDGMLHLPH | -0.167
HMNENDPRVIKTRRLLLDSFVVLVRKKDFTSISVKDITDSAQVNRATFYAHFQDKYDILEYMVID | 0.112
HMQYTQKTMYINDSYVNLRKSASTSSDIIMVVELNTKLTVIGEDGDWYKVKTSSGNAYVLKTLLSNEKKET | -0.108

Sequence | soluble fraction (log2)
HMGTLPSLAPSGEKTVRLPNLAGWSLRETMEILQKGGLQLLPIGSGISFKQSPPPGTTLNEGDAVTVWF | 0.0292
HMVSTEDEISDKLLLDFALEKLSENEKQIVKLRYYNSLTQSKTAEILNMTQVQVSRSEKKILAKLRGII | -0.267
HMFIVTDQMQRVLDYITEKEKATNNDLEELLGVKSTRIYTITRKLIQHNLIIPVGKGKNKYYIL | -0.79
HMQKPDIEVDFAEGDMVVVTGGAWKDTAGVITGINMQKQTVTINVELFGRETPVEISFTEIKKA | 0.00574
HMHSFFGDNIKKLRTAKKMSQEQLADIFGITKAGISYWETGRSEPNFATVQKLADFFGVTTSDLLGEA | -0.194
HMFASSADGVEGLKTNPIFASTKEKSDAGKLLYTRYLAIGIFRMLELAKATDPKALEALVEAGG | 0.0895
HMRKYEAVPASVVPAQIQEYVAKSNFPNQYIRKIERNKYTWEIELSNGLEIKFDRQFNVIGFD | -1.49
HMGRLPMNIVRAIVEHLDRHASYSEINRATGASKGFISKVAAAVEAASLTPEKFLLLNDEDIQNRITPGR | -0.234
HMANLAQITKTNAVALALKDVGAYNSEDLMKFIDLDKVVLGEDGKPQLEDTINSLKESSPYLFQ | 0.0767
HMETVSFNPDIAVIPDYRHVVILGETTKTIANKYDIPVDILKAANPGLGNNVTKGDRLRVPDKTKLQ | 0.155
HMEVKRANRKERFLEALPYQFSRQDYLNIADKNKIPHKTAEGYITKFVDAGLIHREAHNNYTNPTKA | 0.146
HMGLAGVQSDVKVSFDGDLLVVTSDIARSFNLFAVDGRLIRSVNLIAGRNEIRGLERGFYLAEKQKIFV | -2.07
HMDDVYMVPVKDIAINDLKQEFEKLGIPNIQNTIPDKDLNFFIVRKDDLALVNYAIEKTMER | -0.0369
HMNMKVGPVPANVVPANIKAHVSNNYSKYQIVQMMQNDKGYQVKLSNGTDLYYDKDGNILKTS | 0.196
HMTIPSYAEAVRYVRRQPRINTSTLADGLGIRWSLALDYLERMARSGVVGAIEDDGWWPVAR | -0.71
HMVEVPNVSNLTLEQAENKLIQQGLQVKLEGQGEKVVAQIPQPGAVVNKKSTVILF | 0.129
HMEKKTILIPPVITVRALAEISQIPVNRLLQELIKNGVFTSINEKIDFDTAVIIGADLNLDIQLL | -0.95
HMNIEIIEVQEESTPSEISKIISTESTKIIEDLLNLGVMASLETPLKNQDIEKLLEGYGYIVDIKP | -0.372
HMHDAKTQLQEEAARRGLPAPVYTRIGQEGPDHAPRFRVRADVGPHQAEAVAGSLKLAQAEAARAILRQMP | 0.228
HMTYSEEEIERDLYVRGTLYQIGDLVENKIDGTSGEIVRRGPNYVQYSDGENFYKAFLHSIQEV | -0.106
HMKKEQVIVPNVVGDTYDVALRKLTDAKLKVGETFPADREGHQGVIEKQSPAAGETVDEDTPVALFFKV | 0.0344
HMAPRKNIRLLRAAQDKAAAEGDHETVDAIRGQIAALIETLPVQYREEYLLQEKGRENGLKLAIENAAK | 0.423
HMKSVTVIFKESGNVVSSKKLSVVATAQYVDKSRITAPAGYRIATTDSKLKISENNTVTVEVK | 0.212
HMGDSFLDHKKELQSMILSRLDLSREVPDEEIKDIIDELIIAQSKKLFLSLNDRGKLRQELFYSIRK | -0.566
